From article PMC4240464 come the findings set out here.

The target of assay [1] is Evasin-4–Fc (Rhipicephalus sanguineus). The assay can be described thus: SPR.
In assay [2] the target is Fc–Evasin-4 (Rhipicephalus sanguineus). In words: SPR. Background: Surface plasmon resonance follows binding to a sensor surface in real time, without labels.
Assay [3] addresses CCL11 (human) (UniProt P51671).
For assay [4], the target named is CCL22 (human) (UniProt O00626).
The target of assay [5] is CCL24 (human) (UniProt O00175).
Assay [6] concerns the target CCL5 (wild type) (human) (UniProt P13501).

Sequence of CCL3 (P10147 24-92): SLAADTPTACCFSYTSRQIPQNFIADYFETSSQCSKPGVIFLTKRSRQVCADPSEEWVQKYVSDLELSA
Sequence of CCL24 (human) (O00175 27-119): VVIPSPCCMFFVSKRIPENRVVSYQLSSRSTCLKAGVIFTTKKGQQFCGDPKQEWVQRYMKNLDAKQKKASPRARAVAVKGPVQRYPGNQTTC
Sequence of CCL26 (Q9Y258 24-94): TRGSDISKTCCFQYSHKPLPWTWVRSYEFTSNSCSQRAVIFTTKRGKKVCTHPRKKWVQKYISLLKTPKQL
Sequence of CCL7 (P80098 24-99): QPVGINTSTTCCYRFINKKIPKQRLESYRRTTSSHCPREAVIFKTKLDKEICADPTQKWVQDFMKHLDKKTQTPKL
Sequence of CCL8 (P80075 24-99): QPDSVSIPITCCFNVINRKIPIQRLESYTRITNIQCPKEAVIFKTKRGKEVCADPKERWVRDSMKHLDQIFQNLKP
Sequence of CCL11 (P51671 24-97): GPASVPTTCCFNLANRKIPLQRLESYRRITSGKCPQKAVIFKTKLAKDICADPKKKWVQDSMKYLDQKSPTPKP
Sequence of CCL11 (human) (P51671 24-97): as above
Sequence of CCL5 (wild type) (human) (P13501 24-91): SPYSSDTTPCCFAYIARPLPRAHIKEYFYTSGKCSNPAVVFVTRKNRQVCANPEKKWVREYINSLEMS
Sequence of CCL22 (human) (O00626 25-93): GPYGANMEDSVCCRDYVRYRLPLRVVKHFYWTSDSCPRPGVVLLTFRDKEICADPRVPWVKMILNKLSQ

For “CCL3 (from UniProt P10147 24-92) (ligand)”, the equilibrium dissociation constant (Kd) in assay [1] was determined as 6.79 nM; in assay [2], 0.277 nM.

Turning to “CCL5 E26A (from UniProt P13501 24-91) (ligand)”, the equilibrium dissociation constant (Kd) in assay [1] stood at 1.72 nM; in assay [2] it was 0.02 nM.

For “CCL7 (from UniProt P80098 24-99) (ligand)”, the equilibrium dissociation constant (Kd) in assay [1] stood at 0.053 nM; in assay [2], 0.134 nM.

Regarding “CCL8 (from UniProt P80075 24-99) (ligand)”, the dissociation constant (Kd) in assay [1] was determined as 0.015 nM; in assay [2] it was 0.088 nM.

Regarding “CCL11 (from UniProt P51671 24-97) (ligand)”, the equilibrium dissociation constant (Kd) in assay [1] amounted to 3.6 nM; in assay [2], 0.099 nM.

As for “CCL26 (from UniProt Q9Y258 24-94) (ligand)”, the equilibrium dissociation constant (Kd) in assay [1] was 15.6 nM; in assay [2], 17.3 nM.

Evasin-4–Fc (Fc fusion) yielded an IC50, inhibition of chemotaxis of L1.2 CCR3 cells to CCL11 (EC80 1 nM) in assay [3] of 1540 nM. In addition, the IC50, inhibition of chemotaxis of L1.2 CCR4 cells to CCL22 (EC80 1 nM) in assay [4] amounted to 38 nM. The IC50, inhibition of chemotaxis of L1.2 CCR3 cells to CCL24 (EC80 10 nM) in assay [5] came to 642 nM. The substance also displayed an IC50, inhibition of chemotaxis of L1.2 CCR5 cells to CCL5 (EC80 1 nM) in assay [6] of 9.6 nM.

For the substance Fc–Evasin-4 (Fc fusion), the IC50, inhibition of chemotaxis of L1.2 CCR3 cells to CCL11 (EC80 1 nM) in assay [3] stood at 88 nM. In addition, in assay [5], the IC50, inhibition of chemotaxis of L1.2 CCR3 cells to CCL24 (EC80 10 nM) came out at 113 nM.

A word on the Kd: it is the constant that tells how readily two partners part at equilibrium. A higher Kd goes with weaker binding.
